Measurements: US20240026019A1 (Innovent, published 2024)

T1: human TNFR2 overexpressed on CHO-S cells (CHOS-hTNFR2) (human, UniProt P20333 23-461)
T1 construct: also called hTNFR2 CHO-S; human TNFR2 molecule overexpressed on CHO-S cells
T1 sequence: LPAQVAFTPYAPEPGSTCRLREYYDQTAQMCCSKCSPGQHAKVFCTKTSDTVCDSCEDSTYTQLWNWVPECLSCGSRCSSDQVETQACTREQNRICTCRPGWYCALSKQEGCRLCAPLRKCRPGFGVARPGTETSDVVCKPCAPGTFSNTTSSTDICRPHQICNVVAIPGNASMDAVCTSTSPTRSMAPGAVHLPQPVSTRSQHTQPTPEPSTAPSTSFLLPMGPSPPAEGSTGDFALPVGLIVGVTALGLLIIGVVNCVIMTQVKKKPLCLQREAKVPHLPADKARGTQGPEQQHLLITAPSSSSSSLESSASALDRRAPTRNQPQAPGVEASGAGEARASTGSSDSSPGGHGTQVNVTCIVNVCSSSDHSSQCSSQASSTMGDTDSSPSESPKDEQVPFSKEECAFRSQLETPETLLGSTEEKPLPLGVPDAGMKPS

T2: TNFR2 on human K562 chronic myeloid leukemia cells and on primary human Treg cells (human, UniProt P20333 23-461)
T2 construct: whole, on cells; also called K562 cells
T2 sequence (looked up): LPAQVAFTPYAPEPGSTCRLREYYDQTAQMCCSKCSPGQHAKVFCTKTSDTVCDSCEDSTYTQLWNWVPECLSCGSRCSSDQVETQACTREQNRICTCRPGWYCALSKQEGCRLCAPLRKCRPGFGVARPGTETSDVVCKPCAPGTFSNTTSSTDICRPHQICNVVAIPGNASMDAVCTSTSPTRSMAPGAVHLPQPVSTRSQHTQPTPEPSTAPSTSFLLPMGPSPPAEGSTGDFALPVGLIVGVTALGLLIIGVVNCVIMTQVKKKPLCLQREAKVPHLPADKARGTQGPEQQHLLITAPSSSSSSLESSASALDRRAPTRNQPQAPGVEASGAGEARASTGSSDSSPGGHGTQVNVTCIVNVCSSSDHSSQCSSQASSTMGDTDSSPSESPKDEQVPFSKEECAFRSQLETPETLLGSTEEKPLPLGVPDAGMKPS

T3: hTNFR2 protein (coated on the microplate in the blocking ELISA) (human, UniProt P20333 23-257)
T3 construct: The construct coated in the ELISA is not described (it may or may not be the immunogen, Sino biological 10417-H03H)
T3 sequence (looked up): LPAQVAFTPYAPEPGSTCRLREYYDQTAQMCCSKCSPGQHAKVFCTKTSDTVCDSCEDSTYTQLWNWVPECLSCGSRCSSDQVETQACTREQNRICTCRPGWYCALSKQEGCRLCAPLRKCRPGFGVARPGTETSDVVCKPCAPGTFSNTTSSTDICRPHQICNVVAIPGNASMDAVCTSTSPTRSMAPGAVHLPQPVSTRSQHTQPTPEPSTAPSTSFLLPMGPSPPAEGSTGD


Columns and labels:
[1] = biological target: T1, human TNFR2 overexpressed on CHO-S …; test: flow cytometry on CHO-S cells overexpressing human TNFR2 (humanized antibodies), MFI-FL2A; unit taken from the axis Conc log(nM)
Procedure: In the study, the binding of the antibodies, after being diluted in a gradient, to a stable CHO-S strain line overexpressing human TNFR2 on the surface was assayed by using a flow cytometer.
CHOS-hTNFR2 cells were counted and diluted to 2×10⁶ cells/mL, and added to a U-bottom 96-well plate at 100 μL/well. The mixture was centrifuged at 300 g for 5 min, and the cell medium was removed. Samples (the humanized antibodies hz3C4.7, hz69B1.5, hz69B1.6, hz69B1.11 and hz69B1.20, the chimeric antibody 69B1, and the positive control antibody OPI) (the antibodies were subjected to a three-fold dilution in PBS from the maximum antibody concentration of 300 nM) were added to the U-plate, and the cells were resuspended at 100 μL/well and left to stand on ice for 30 min. The suspension was centrifuged at 400 g for 5 min, and the supernatant was removed. The cells were washed twice with PBS. The mixture was centrifuged at 300 g for 5 min, and PBS was removed. 100 μL of anti-human Fc PE-labeled secondary antibody (SoutherBiotech; 2040-09) (diluted at a 1:100 ratio in PBS) was added to each well and incubated on ice for 30 min in the dark. The mixture was centrifuged at 400 g for 5 min, and the supernatant was removed. The cells were washed 3 times with PBS. The cells were resuspended in 200 μL of 1×PBS and assayed by FACS.

[2] = biological target: T2, TNFR2 on human K562 chronic myeloid …; test: flow cytometry on primary human Treg cells, MFI(FL2); unit taken from the axis Conc log(nM)
Procedure: Tregs were prepared as follows: Human PBMC cells ([…], PB005F) were thawed, CD4⁺ CD25⁺ CD127^low cells were sorted by flow cytometry, and Treg cells were isolated. According to CD4⁺:anti-CD3/CD28 Beads=1:1, Dynabeads Human T-Activator CD3/CD28 (Gibco, 11131D) was added, followed by 10 ng/mL recombinant IL2, and the cells were stimulated for 7 days.
(§1) Assay steps: The mixture was centrifuged at 400 g for 5 min, and the cell medium was removed. K562 or Treg cells were resuspended in PBS. After counting, the cells were adjusted to a density of 2×10⁶/mL, and the cell suspension was added to a U-bottom 96-well plate at 100 μL/well. The test antibody was added, subjected to a three-fold gradient dilution, and left to stand on ice for 30 min. The mixture was centrifuged at 300 g for 5 min, and the supernatant was removed. The cells were washed once with PBS. The mixture was centrifuged at 300 g for 5 min, and PBS was removed. 100 μL of PE-anti-human Fc antibody (SOUTHERN BIOTECH, 2040-09) diluted at a ratio of 1:200 was added to each well. The mixture was incubated on ice for 30 min in the dark. The mixture was centrifuged at 400 g for 5 min, and the supernatant was removed. The cells were washed twice with PBS. The cells were resuspended in 100 μL of PBS and assayed by using a flow cytometer (BD, ACCURIC6 plus).

[3] = biological target: T3, hTNFR2 protein (coated on the …); test: blocking ELISA: hTNFR2 coated on the plate, binding of biotinylated TNFα blocked by the antibody; unit taken from the axis Conc log(nM) [A]
Procedure: (§2) The hTNFR2 protein was resuspended and dissolved to a concentration of 2 μg/mL with PBS, and a microplate was coated with the protein and incubated overnight. The plate was blocked with 5% BSA for 1 h, and a biotinylated antigen (Recombinant Biotinylated TNFα protein (ACRO)) was diluted to 2 μg/mL and added to the plate at 10 μL/well. The antibodies prepared as described above (3C4, 69B1, and 72G8) were each diluted in a gradient starting from the maximum concentration of 300 nM for a total of 8 or 12 dilution gradients. The diluted antibodies were added at 100 μL/well and incubated in PBS on ice for 30 min. The antigen-antibody mixture was incubated in a microplate for 90 min and washed three times with PBS, and the supernatant was discarded. 100 μL of Avidin-HRP (Invitrogen) diluted at a 1:5000 ratio was added to each well, incubated at room temperature for 30 min, and washed six times with PBS. A TMB chromogenic solution (solarbio) was added to the plate at 100 μL/well for color development for 1 min, and the reaction was stopped by adding a stop buffer (solarbio) at 100 μL/well. The plate was read on a microplate reader at OD₄₅₀ and OD₆₂₀.
In a similar manner to that in Example 7, the ability of the humanized antibodies hz3C4.7, hz69b1.5, hz69b1.6, hz69b1.11, and hz69b1.20, and the control antibody OPI to block the binding of human TNFα to hTNFR2 was assayed by ELISA.

[4] = biological target: T2, TNFR2 on human K562 chronic myeloid …; test: flow cytometry on human K562 CML cells, MFI(FL2); unit taken from the axis Conc log(nM)
Procedure: as §1

[5] = biological target: T3, hTNFR2 protein (coated on the …); test: blocking ELISA: hTNFR2 coated on the plate, binding of biotinylated TNFα blocked by the antibody, Avidin-HRP
Procedure: The ability of the hybridoma antibodies 3C4, 69B1, and 72G8 and the control antibody OPI to block the binding of human TNFα to hTNFR2 was assayed by ELISA.
as §2, with “diluted to 3 μg/mL and” for “diluted to 2 μg/mL and”, “plate at 20 μL/well. The” for “plate at 10 μL/well. The”, “added at 200 μL/well and” for “added at 100 μL/well and”

[6] = biological target: T1, human TNFR2 overexpressed on CHO-S …; test: flow cytometry on CHO-S cells overexpressing human TNFR2 (hybridoma antibodies), MFI
Procedure: In the study, the binding of the hybridoma antibodies (3C4, 69B1, and 72G8) of the present invention, after being diluted in a gradient, to a stable CHO-S cell strain overexpressing human TNFR2 on the surface was assayed by using a flow cytometer.
CHOS-hTNFR2 cells or CHOS-cTNFR2 cells were counted and diluted to 2×10⁶ cells/mL, and added to a U-bottom 96-well plate at 100 μL/well. The mixture was centrifuged at 300 g for 5 min, and the cell medium was removed. The dilutions of the samples (the hybridoma antibodies 3C4, 69B1, and 72G8 and the positive control antibody OPI) (the antibodies were subjected to a two-fold serial dilution in PBS from the maximum antibody concentration of 300 nM) were added to the U-plate, and the cells were resuspended at 100 μL/well and left to stand on ice for 30 min. The suspension was centrifuged at 400 g for 5 min, and the supernatant was removed. The cells were washed twice with PBS. The mixture was centrifuged at 300 g for 5 min, and PBS was removed. […] The mixture was centrifuged at 400 g for 5 min, and the supernatant was removed. The cells were washed 3 times with PBS. The cells were resuspended in 200 μL of 1×PBS and assayed by FACS.

EC50 [1]	EC50 [2]	IC50 [3]	EC50 [4]	IC50 (read off the curve) [5]	EC50 (read off the curve) [6]	Binder
0.207 nM	0.0599 nM	30 nM	0.0356 nM			humanized antibody hz3C4.7 (antibody, human IgG1, kappa, V domains shown) VH: QVQLVQSGAEVKKPGASVKVSCKASDYSFTNYYIHWVRQAPGQGLEWMGWIYPGNVITKYHEKFKGRVTMTADTSTSTAYMELSSLRSEDTAVYYCARSRATGYFDYWGQGTLVTVSS VL: DIQMTQSPSSLSASVGDRVTITCRASQDIRNYLNWYQQKPGKAPKLLIYYTSRLHSGVPSRFSGSGSGTDYTLTISSLQPEDFATYYCQQFNTLPWTFGGGTKVEIKR
				~5 nM	~2 nM	hybridoma antibody 3C4 (antibody, V domains shown, Murine antibody from the hybridoma (detected with anti-mouse IgG)) VH: QVQLQQSGPELVKPGASVTISCKASDYSFTNYYIHWVKQRPGQGLEWIGWIYPGNVITKYHEKFKGKAILTADTSSTTAYMQLNSLTSEDSAVYFCARSRATGYFDYWGQGTTLTVSS VL: DIQMTQTTSSLSASLGDRVTISCRASQDIRNYLNWFQQKPDGTIKLLIYYTSRLHSGVPSRFSGSGSGTDYSLTISNLEQEDMATYFCQQFNTLPWTFGGGTKLEIK
0.424 nM	0.0239 nM		0.0613 nM			humanized antibody hz69B1.5 (antibody, human IgG1, kappa, V domains shown) VH: QIQLVQSGSELKKPGASVKVSCKASGYTFTDYSMNWVRQAPGQGLEWMGWLNTETGEPIYADDFKGRFVFSLDTSVSTAYLQISSLKAEDTAVYFCAREAIYYGTSYVLDYWGQGTLVTVSS VL: DIVLTQSPASLAVSPGQRATITCRASESVEYYGTNFMQWYQQKPGQPPKLLIYSASNVESGVPARFSGSGSGTDFTLTINPVEANDTANYYCQQSRKDPSTFGQGTKLEIKR
0.357 nM						humanized antibody hz69B1.6 (antibody, human IgG1, kappa, V domains shown) VH: QVQLVQSGAEVKKPGASVKVSCKASGYTFTDYSMNWVRQAPGQRLEWMGWLNTETGEPIYADDFKGRVTITRDTSASTAYMELSSLRSEDTAVYYCAREAIYYGTSYVLDYWGQGTLVTVSS VL: DIVLTQSPASLAVSPGQRATITCRASESVEYYGTNFMQWYQQKPGQPPKLLIYSASNVESGVPARFSGSGSGTDFTLTINPVEANDTANYFCQQSRKDPSTFGQGTKLEIKR
0.42 nM	0.0299 nM		0.0549 nM			humanized antibody hz69B1.20 (antibody, human IgG1, kappa, V domains shown) VH: QIQLVQSGSELKKPGASVKVSCKASGYTFTDYSMNWVRQAPGQGLEWMGWLNTETGEPIYADDFKGRFVFSLDTSVSTAYLQISSLKAEDTAVYFCAREAIYYGTSYVLDYWGQGTLVTVSS VL: DIVLTQSPASLAVSPGQRATITCRASESVEYYGTNFMQWYQQKPGQPPKLLIYSASNVESGVPARFSGSGSGTDFTLTINPVEAQDTANYFCQQSRKDPSTFGQGTKLEIKR
0.36 nM	0.0243 nM		0.0446 nM			humanized antibody hz69B1.11 (antibody, human IgG1, kappa, V domains shown) VH: QVQLVQSGAEVKKPGASVKVSCKASGYTFTDYSMNWVRQAPGQRLEWMGWLNTETGEPIYADDFKGRVTITRDTSASTAYMELSSLRSEDTAVYYCAREAIYYGTSYVLDYWGQGTLVTVSS VL: DIVLTQSPASLAVSPGQRATITCRASESVEYYGTNFMQWYQQKPGQPPKLLIYSASNVESGVPARFSGSGSGTDFTLTINPVEAQDTANYFCQQSRKDPSTFGQGTKLEIKR
